In IntAct's records for PubMed 26040717:

B1: Autophagy-related protein 8 (Saccharomyces cerevisiae), P38182 (parent)
chain: MKSTFKSEYPFEKRKAESERIADRFKNRIPVICEKAEKSDIPEIDKRKYLVPADLTVGQFVYVIRKRIMLPPEKAIFIFVNDTLPPTAALMSAIYQEHKDKDGFLYVTYSGENTFGR
partner: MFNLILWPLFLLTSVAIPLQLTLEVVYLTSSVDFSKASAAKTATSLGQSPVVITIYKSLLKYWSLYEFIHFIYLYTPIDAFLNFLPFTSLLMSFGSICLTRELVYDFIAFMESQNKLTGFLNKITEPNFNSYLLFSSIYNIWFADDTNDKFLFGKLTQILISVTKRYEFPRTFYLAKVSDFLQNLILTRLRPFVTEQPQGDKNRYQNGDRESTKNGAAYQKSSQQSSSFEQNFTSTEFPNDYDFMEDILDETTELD
B2: Autophagy-related protein 39 (Saccharomyces cerevisiae), Q06159 (parent)
chain: MSEEDDHWNLVRLRRLRKGREGEEQSSKSEISLDSLHESSFAGEDDEDFDADVLSNTSSEESAQMNRIYDFRTSNEFSNAGVNIDQTGVPTISESFDTLSGSNVGGTVLPSMEGSKLKDSTIRNSSTLSDHIIDKSEGKSAKLKMWHVIMLSSLLSMTFSYLALEYSLTGDVLAGFKSQQSLRNNERKLLYGNIDFVDKKSYDSSSDSLSQWAPSGKYYVDFDNHIAYPLKDDDLMGWRRYKTDLVILWYTTKARMKDGWHKRINKINGGRIKLHLFLKNSFKSAQESLRVLHKEQKRRWKRLFVLLHNKYRQFSPHIKRYFDHSCQKAKQCWSGSRLQLRKLRFKSMKPFRVFQFKVRKDTNWFVKQLKRFGLKLQHSRMYKAMSECRKKNYFKCKH
partner: B1 chain
B3: Autophagy-related protein 40 (Saccharomyces cerevisiae), Q99325 (parent)
chain: B1 partner
partner: B1 chain
B4: Autophagy-related protein 39 (Saccharomyces cerevisiae), Q06159 (parent)
chain: B2 chain
partner: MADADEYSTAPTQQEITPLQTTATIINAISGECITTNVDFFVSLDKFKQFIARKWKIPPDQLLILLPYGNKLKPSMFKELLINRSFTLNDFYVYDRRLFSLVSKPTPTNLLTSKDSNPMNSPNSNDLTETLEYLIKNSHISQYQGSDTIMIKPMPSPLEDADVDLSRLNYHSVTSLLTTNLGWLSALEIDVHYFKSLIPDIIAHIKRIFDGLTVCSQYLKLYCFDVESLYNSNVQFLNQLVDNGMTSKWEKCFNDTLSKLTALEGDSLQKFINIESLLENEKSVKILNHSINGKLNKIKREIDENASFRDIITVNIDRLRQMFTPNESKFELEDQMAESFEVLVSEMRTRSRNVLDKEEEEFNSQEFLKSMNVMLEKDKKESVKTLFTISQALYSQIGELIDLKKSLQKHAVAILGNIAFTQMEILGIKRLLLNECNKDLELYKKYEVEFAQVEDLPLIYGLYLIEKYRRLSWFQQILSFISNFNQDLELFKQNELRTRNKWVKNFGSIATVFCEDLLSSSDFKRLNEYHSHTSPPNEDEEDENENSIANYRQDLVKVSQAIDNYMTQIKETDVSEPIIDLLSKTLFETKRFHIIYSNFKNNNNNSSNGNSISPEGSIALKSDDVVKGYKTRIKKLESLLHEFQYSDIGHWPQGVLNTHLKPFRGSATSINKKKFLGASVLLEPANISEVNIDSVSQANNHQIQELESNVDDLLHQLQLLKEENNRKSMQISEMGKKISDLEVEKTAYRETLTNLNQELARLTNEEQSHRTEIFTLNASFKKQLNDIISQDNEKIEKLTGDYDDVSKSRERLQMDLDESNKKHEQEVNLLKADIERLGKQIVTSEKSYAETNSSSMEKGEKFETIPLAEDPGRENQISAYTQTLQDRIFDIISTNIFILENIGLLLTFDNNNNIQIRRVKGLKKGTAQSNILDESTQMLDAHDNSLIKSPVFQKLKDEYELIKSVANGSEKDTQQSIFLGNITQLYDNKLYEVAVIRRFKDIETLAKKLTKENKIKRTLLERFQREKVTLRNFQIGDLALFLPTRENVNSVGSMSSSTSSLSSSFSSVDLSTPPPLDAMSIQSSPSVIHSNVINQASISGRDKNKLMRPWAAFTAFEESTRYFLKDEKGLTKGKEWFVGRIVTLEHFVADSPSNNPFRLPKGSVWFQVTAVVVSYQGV
B5: Autophagy-related protein 8 (Saccharomyces cerevisiae), P38182 (parent)
chain: B1 chain
partner: B2 chain

Variants of: B1
Details: with atg40_yeast ATG40, Q99325

Row | effect of a mutation on the interaction | Variant
1 | disrupting interaction strength | MKSTFKSEYPFEKRKAESERIADRFKNRIPVICEKAEKSDIPEIDKRKYLVAADLTVGQFVYVIRKAIMLPPEKAIFIFVNDTLPPTAALMSAIYQEHKDKDGFLYVTYSGENTFGR

Variants of: B2
Details: with atg8_yeast ATG8, P38182

Row | effect of a mutation on the interaction | Variant
2 | disrupting interaction strength | MSEEDDHANLARLRRLRKGREGEEQSSKSEISLDSLHESSFAGEDDEDFDADVLSNTSSEESAQMNRIYDFRTSNEFSNAGVNIDQTGVPTISESFDTLSGSNVGGTVLPSMEGSKLKDSTIRNSSTLSDHIIDKSEGKSAKLKMWHVIMLSSLLSMTFSYLALEYSLTGDVLAGFKSQQSLRNNERKLLYGNIDFVDKKSYDSSSDSLSQWAPSGKYYVDFDNHIAYPLKDDDLMGWRRYKTDLVILWYTTKARMKDGWHKRINKINGGRIKLHLFLKNSFKSAQESLRVLHKEQKRRWKRLFVLLHNKYRQFSPHIKRYFDHSCQKAKQCWSGSRLQLRKLRFKSMKPFRVFQFKVRKDTNWFVKQLKRFGLKLQHSRMYKAMSECRKKNYFKCKH [W8A;V11A]

Variants of: B3
Details: with atg8_yeast ATG8, P38182

Row | effect of a mutation on the interaction | Variant
3 | disrupting interaction strength | MFNLILWPLFLLTSVAIPLQLTLEVVYLTSSVDFSKASAAKTATSLGQSPVVITIYKSLLKYWSLYEFIHFIYLYTPIDAFLNFLPFTSLLMSFGSICLTRELVYDFIAFMESQNKLTGFLNKITEPNFNSYLLFSSIYNIWFADDTNDKFLFGKLTQILISVTKRYEFPRTFYLAKVSDFLQNLILTRLRPFVTEQPQGDKNRYQNGDRESTKNGAAYQKSSQQSSSFEQNFTSTEFPNDADFAEDILDETTELD [Y242A;M245A]

Variants of: B4
Details: with atg11_yeast ATG11, Q12527

Row | effect of a mutation on the interaction | Variant
4 | disrupting interaction strength | MSEEDDHWNLVRLRRLRKGREGEEQSSKSEISLDSLHESSFAGEDDEDFDAAAAAAAAAEESAQMNRIYDFRTSNEFSNAGVNIDQTGVPTISESFDTLSGSNVGGTVLPSMEGSKLKDSTIRNSSTLSDHIIDKSEGKSAKLKMWHVIMLSSLLSMTFSYLALEYSLTGDVLAGFKSQQSLRNNERKLLYGNIDFVDKKSYDSSSDSLSQWAPSGKYYVDFDNHIAYPLKDDDLMGWRRYKTDLVILWYTTKARMKDGWHKRINKINGGRIKLHLFLKNSFKSAQESLRVLHKEQKRRWKRLFVLLHNKYRQFSPHIKRYFDHSCQKAKQCWSGSRLQLRKLRFKSMKPFRVFQFKVRKDTNWFVKQLKRFGLKLQHSRMYKAMSECRKKNYFKCKH [D52A;V53A;L54A;S55A;N56A;T57A;S58A;S59A]

Variants of: B5
Details: with atg39_yeast ATG39, Q06159

Row | effect of a mutation on the interaction | Variant
5 | disrupting interaction strength | MKSTFKSEYPFEKRKAESERIADRFKNRIPVICEKAEKSDIPEIDKRKYLVAADLTVGQFVYVIRKAIMLPPEKAIFIFVNDTLPPTAALMSAIYQEHKDKDGFLYVTYSGENTFGR

Variants of: B5
Details: with atg39_yeast ATG39, Q06159
Remark: another data set of the same source

Row | effect of a mutation on the interaction | Variant
6 | decreasing interaction strength | MKSTFKSEYPFEKRKAESERIADRFKNRIPVICEKAEKSDIPEIDKRKYLVAADLTVGQFVYVIRKAIMLPPEKAIFIFVNDTLPPTAALMSAIYQEHKDKDGFLYVTYSGENTFGR
